Experimental data: patent publication US20250262210A1 (TRUSTEES OF COLUMBIA UNIVERSITY IN THE CITY OF NEW YORK, published 2025)

Experiments:
Assay in all cases: IP/MS, LZTR1 R810W-FLAG, U87
[1] = biological target: T1, KIAA1468 (human, UniProt Q9P260 2-1216, limits assumed)
T1 sequence (looked up): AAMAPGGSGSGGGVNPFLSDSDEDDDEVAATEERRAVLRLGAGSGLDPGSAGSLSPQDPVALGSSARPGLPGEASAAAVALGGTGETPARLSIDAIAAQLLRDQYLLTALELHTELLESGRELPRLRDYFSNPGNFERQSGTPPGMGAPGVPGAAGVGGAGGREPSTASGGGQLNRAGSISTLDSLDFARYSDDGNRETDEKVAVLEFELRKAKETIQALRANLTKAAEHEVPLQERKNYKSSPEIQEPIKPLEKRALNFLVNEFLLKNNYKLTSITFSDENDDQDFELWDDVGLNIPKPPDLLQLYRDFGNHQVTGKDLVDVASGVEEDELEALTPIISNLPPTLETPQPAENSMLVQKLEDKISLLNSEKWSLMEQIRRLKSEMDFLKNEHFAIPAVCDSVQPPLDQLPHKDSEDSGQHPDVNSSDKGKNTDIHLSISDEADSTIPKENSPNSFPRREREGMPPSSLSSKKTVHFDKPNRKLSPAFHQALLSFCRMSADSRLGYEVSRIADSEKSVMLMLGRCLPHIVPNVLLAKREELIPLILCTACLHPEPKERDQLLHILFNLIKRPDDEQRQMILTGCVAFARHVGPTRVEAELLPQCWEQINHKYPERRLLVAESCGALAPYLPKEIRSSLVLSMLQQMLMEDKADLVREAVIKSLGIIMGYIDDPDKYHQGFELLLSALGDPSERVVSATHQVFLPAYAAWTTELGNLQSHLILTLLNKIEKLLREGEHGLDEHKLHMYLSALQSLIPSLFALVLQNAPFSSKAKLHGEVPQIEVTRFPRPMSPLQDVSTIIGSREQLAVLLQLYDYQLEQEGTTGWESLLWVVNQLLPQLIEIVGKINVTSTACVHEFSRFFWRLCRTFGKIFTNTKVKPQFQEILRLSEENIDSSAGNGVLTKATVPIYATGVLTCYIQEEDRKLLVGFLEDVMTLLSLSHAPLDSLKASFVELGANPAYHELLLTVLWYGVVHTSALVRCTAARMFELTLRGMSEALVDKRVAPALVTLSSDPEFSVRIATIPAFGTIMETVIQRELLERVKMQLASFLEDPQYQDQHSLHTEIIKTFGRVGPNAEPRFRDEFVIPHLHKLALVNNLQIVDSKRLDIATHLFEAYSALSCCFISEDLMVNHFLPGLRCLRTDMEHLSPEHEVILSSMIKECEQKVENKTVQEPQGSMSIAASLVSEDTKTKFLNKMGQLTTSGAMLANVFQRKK
Outline: (§1)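 Read-out: spectral counts from LC-MS/MS (Orbitrap Fusion) after MaxQuant identification. Variable modifications were Met oxidation, protein N-terminal acetylation and N/Q deamidation.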

[2] = biological target: MYO10 (human, UniProt Q9HD67 1-2058, limits assumed)
Outline: as §1

[3] = biological target: ASXL1 (human, UniProt Q8IXJ9 1-1541, limits assumed)
Outline: as §1

[4] = biological target: RICTOR (human, UniProt Q6R327 1-1708, limits assumed)
Outline: as §1

Measured: binding result

Chain of MYO10 (Q9HD67 whole entry): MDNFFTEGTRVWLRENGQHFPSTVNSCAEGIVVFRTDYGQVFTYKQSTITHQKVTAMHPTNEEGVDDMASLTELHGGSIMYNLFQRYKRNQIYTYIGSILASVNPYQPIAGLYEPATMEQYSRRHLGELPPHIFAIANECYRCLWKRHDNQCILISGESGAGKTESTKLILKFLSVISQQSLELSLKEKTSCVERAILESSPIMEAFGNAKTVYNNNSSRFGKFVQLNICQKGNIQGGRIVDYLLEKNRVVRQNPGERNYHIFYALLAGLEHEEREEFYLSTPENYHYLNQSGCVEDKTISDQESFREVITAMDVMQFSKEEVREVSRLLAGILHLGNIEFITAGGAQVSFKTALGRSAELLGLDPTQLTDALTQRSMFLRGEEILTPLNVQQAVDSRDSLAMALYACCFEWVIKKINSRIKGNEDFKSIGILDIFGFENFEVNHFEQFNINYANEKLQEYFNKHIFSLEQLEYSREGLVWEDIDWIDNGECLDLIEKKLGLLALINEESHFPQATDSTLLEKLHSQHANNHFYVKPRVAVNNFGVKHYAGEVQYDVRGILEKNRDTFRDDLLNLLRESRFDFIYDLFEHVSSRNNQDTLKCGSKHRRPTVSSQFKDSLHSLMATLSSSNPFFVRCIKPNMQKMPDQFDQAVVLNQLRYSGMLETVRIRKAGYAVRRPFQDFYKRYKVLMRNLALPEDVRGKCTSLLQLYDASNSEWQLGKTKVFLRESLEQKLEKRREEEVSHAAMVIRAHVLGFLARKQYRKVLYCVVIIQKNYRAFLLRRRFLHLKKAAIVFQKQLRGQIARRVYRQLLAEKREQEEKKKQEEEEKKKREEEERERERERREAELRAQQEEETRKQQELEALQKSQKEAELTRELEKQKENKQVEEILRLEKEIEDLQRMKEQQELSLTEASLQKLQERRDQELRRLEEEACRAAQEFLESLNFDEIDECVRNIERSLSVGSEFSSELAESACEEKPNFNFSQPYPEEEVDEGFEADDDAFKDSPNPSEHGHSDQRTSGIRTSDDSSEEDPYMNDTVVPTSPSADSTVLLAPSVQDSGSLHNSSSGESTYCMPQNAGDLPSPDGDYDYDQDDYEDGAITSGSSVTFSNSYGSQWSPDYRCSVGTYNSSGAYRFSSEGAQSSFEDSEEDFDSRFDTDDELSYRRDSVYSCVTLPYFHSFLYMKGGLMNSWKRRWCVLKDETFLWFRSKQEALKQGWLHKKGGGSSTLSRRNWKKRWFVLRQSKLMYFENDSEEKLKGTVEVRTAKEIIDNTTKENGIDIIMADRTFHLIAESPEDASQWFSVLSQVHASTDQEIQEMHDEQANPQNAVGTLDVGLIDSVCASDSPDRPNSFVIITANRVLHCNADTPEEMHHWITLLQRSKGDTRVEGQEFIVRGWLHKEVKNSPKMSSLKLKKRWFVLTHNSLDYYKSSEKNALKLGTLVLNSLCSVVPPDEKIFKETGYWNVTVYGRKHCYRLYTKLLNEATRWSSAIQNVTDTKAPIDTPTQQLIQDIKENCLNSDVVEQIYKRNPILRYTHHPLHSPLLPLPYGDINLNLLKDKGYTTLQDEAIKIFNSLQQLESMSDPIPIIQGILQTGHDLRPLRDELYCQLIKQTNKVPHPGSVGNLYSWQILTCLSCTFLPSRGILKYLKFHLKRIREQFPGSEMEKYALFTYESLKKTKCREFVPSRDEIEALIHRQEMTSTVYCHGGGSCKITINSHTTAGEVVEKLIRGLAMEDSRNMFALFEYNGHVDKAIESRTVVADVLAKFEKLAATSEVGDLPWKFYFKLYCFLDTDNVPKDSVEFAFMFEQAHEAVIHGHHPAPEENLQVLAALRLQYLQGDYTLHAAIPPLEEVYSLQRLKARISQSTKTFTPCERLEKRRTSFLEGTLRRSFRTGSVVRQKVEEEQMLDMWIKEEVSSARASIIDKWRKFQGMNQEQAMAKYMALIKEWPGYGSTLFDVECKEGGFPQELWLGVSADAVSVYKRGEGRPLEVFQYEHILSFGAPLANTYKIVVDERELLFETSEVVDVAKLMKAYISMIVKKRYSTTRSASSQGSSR
Chain of ASXL1 (Q8IXJ9 whole entry): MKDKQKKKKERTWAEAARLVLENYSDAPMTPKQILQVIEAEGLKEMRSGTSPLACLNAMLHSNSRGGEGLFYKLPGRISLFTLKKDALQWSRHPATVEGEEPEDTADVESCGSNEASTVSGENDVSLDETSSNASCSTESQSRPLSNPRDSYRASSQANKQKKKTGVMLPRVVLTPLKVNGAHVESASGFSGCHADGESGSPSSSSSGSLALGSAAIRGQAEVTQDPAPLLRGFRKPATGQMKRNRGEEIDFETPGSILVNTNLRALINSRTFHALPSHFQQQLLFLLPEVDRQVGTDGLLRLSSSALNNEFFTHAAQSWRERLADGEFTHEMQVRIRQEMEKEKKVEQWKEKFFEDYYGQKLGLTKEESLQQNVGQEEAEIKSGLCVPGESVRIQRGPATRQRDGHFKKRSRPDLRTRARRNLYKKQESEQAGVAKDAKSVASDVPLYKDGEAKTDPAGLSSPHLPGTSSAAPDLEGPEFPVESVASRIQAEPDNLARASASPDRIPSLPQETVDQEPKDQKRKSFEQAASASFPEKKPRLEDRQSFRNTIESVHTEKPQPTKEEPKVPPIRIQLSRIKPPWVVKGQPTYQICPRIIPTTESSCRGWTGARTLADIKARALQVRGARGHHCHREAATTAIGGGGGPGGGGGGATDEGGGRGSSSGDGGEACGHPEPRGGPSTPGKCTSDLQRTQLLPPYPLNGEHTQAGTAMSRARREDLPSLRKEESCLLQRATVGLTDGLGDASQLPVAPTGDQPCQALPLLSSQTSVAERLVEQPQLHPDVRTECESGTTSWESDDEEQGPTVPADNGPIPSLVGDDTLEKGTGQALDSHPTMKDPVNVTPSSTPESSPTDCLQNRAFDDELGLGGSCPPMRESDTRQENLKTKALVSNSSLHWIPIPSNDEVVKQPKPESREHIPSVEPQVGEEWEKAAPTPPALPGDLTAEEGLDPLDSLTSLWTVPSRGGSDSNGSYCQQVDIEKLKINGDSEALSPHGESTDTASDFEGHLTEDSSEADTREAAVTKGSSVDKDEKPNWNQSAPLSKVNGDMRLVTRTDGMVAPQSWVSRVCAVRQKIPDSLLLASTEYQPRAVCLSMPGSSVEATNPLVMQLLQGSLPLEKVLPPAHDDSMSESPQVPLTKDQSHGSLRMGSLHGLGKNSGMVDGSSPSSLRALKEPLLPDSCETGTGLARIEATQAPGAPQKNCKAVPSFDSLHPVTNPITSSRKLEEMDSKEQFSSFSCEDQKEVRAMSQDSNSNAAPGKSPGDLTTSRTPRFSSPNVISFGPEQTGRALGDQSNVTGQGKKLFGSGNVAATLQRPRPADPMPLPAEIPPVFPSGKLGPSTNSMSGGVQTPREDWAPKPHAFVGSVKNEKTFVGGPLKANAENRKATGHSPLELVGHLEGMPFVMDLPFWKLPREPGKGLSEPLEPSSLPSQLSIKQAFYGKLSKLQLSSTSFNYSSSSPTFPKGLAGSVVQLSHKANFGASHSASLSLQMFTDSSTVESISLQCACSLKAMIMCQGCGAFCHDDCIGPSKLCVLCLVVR

B1: LZTR1 R810W-FLAG (other, human, UniProt Q8N653 1-840, looked up)
chain: MAGPGSTGGQIGAAALAGGARSKVAPSVDFDHSCSDSVEYLTLNFGPFETVHRWRRLPPCDEFVGARRSKHTVVAYKDAIYVFGGDNGKTMLNDLLRFDVKDCSWCRAFTTGTPPAPRYHHSAVVYGSSMFVFGGYTGDIYSNSNLKNKNDLFEYKFATGQWTEWKIEGRLPVARSAHGATVYSDKLWIFAGYDGNARLNDMWTIGLQDRELTCWEEVAQSGEIPPSCCNFPVAVCRDKMFVFSGQSGAKITNNLFQFEFKDKTWTRIPTEHLLRGSPPPPQRRYGHTMVAFDRHLYVFGGAADNTLPNELHCYDVDFQTWEVVQPSSDSEVGGAEVPERACASEEVPTLTYEERVGFKKSRDVFGLDFGTTSAKQPTQPASELPSGRLFHAAAVISDAMYIFGGTVDNNIRSGEMYRFQFSCYPKCTLHEDYGRLWESRQFCDVEFVLGEKEECVQGHVAIVTARSRWLRRKITQARERLAQKLEQEAAPVPREAPGVAAGGARPPLLHVAIREAEARPFEVLMQFLYTDKIKYPRKGHVEDVLLIMDVYKLALSFQLCRLEQLCRQYIEASVDLQNVLVVCESAARLQLSQLKEHCLNFVVKESHFNQVIMMKEFERLSSPLIVEIVRRKQQPPPRTPLDQPVDIGTSLIQDMKAYLEGAGAEFCDITLLLDGHPRPAHKAILAARSSYFEAMFRSFMPEDGQVNISIGEMVPSRQAFESMLRYIYYGEVNMPPEDSLYLFAAPYYYGFYNNRLQAYCKQNLEMNVTVQNVLQILEAADKTQALDMKRHCLHIIVHQFTKVSKLPTLWSLSQQLLLDIIDSLASHISDKQCAELGADI
notes: Stably expressed in U87 cells by lentivirus; also called LZTR1-FLAG-R810W; LZTR1 RW; not shown: FLAG tag
binds: all assays above
